Test results published in PMC8782670, “Production and Characterization of RNA Aptamers Specific for Amyloid Fibril Epitopes”.

Target: beta2-microglobulin, monomer at pH 3.6 (biotinylated, partially folded) (human, UniProt P61769 21-119)
Assay: SPR; pH 3.6, 250 mM NaCl; apparent, 1:1 fit; SPR: Buffer A pH 3.6, 250 mM NaCl, 25 C, 0.5 uM RNA; dot blot: Buffer A pH 7.0, 1 M NaCl, 10 ug/ml BSA and yeast tRNA, 21 C (Buffer A composition not given)
Conditions: protein: recombinant; tags: biotin; interrupted stem-loop (Mfold)

Sequence of beta2-microglobulin, monomer at pH 3.6 (biotinylated, partially folded) (P61769 21-119): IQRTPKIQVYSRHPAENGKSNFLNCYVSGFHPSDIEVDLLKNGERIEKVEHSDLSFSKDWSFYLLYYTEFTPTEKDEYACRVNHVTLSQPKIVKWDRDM

B1: M-2 (structured_RNA)
RNA: GGGCCAAGCUUGCAUGCCUGCAGUUGGUUACGCGUACAGUGAAACUCGGAAAGUUGAAGGGCCAAAUGGGAACGGUACCGAGCUCAGGUUCCC
Kd: ~10 nM
